# B1: MCC1: patient-derived class I high avidity MCPyV T antigen KLL-specific TCR, codon optimized and transduced into T cells (protein)
# alpha: RKEVEQDPGPFNVPEGATVAFNCTYSNSASQSFFWYRQDCRKEPKLLMSVYSSGNEDGRFTAQLNRASQYISLLIRDSKLSDSATYLCVVATYSGGGADGLTFGKGTHLIIQPDIQNPDPAVYQLRDSKSSDKSVCLFTDFDSQTNVSQSKDSDVYITDKCVLDMRSMDFKSNSAVAWSNKSDFACANAFNNSIIPEDTFFPSPESSCDVKLVEKSFETDTNLNFQNLSVIGFRILLLKVAGFNLLMTLRLWSS
# beta: DAGITQSPRYKITETGRQVTLMCHQTWSHSYMFWYRQDLGHGLRLIYYSAAADITDKGEVPDGYVVSRSKTENFPLTLESATRSQTSVYFCASSSGNPSTDTQYFGPGTRLTVLDLKNVFPPEVAVFEPSEAEISHTQKATLVCLATGFYPDHVELSWWVNGKEVHSGVCTDPQPLKEQPALNDSRYCLSSRLRVSATFWQNPRNHFRCQVQFYGLSENDEWTQDRAKPVTQIVSAEAWGRADCGFTSESYQQGVLSATILYEILLGKATLYAVLVSALVLMAMVKRKDSRG
# Columns and labels:
# [1] = system: peptide loaded HLA-A*02:01 K562 cells; test: Effector cytokine secretion (IFNγ, IL-2, TNF) of transduced T cells; type: cell-based
# From the text: (A) CD8 T cells were successfully transduced with codon-optimized MCC-specific TCR (MCC1).
# The polynucleotide of one of the patient-derived class I high avidity TCR clones (MCC1) was codon optimized and transduced into CD8+ T and examined for their ability to activate […].
# [2] = system: KLL-tetramer; test: KLL-tetramer staining of MCC1-transduced T cells after expansion; type: binding; details: CD8+ and CD4+ T cells transduced with codon-optimized TCR, expanded in culture for two weeks
# [3] = system: peptide loaded HLA-A*02:01 K562 cells; test: Proliferation of transduced T cells over 72 hours; type: cell-based; details: transduced CD8+ T cells
# [4] = system: peptide loaded HLA-A*02:01 K562 cells; test: 4 hour chromium release assay, peptide loaded targets; type: cell-based; details: transduced CD8+ T cells
# [5] = system: HLA-A*02:01 fibroblast cell lines transduced with MCPyV LT antigen; test: 4 hour chromium release assay, LT antigen transduced targets; type: cell-based; details: transduced CD8+ T cells
molecule,measurement,setting,value
B1,"maximum percentage of transduced cells that secrete IFNγ, IL-2 and TNF","[1]; saturating levels of peptide (5 μg/mL), CD4+ versus CD8+ T cells",similar
same,sensitivity to engage cytokine secretion,[1]; transduced CD4+ T cells,reduced sensitivity
same,effector cytokine production,[1]; transduced CD8+ T cells,make effector cytokines
same,tetramer positivity after expansion,[2],remained tetramer positive
same,proliferation,[3],readily proliferate
same,specific killing of peptide loaded targets,[4],specifically killed
same,specific killing of MCPyV LT antigen transduced targets,[5],specifically killed

# Source: US11534461B2, “High affinity merkel cell polyomavirus T antigen-specific TCRS and uses thereof” (priority 2016, dated 2022)
